A protein production outcome set (Wang et al. 2014)

Assay: label from the status in PepcDB records

In the case of “MVLYIILAIIVIILIAVGVLFYLRSNKRQIIEKAIERKNEIETLPFDQNLAQLSKLNLKGETKTKYDAMKKDNVESTNKYLAPVEEKIHNAEALLDKFSFNASQSEIDDANELMDSYEQSYQQQLEDVNEIIALYKDNDELYDKCKVDYREMKRDVLANRHQFGEAASLLETEIEKFEPRLEQYEVLKADGNYVQAHNHIAALNEQMKQLRSYMEEIPELIRETQKELPGQFQDLKYGCRDLKVEGYDLDHVKVDSTLQSLKTELSFVEPLISRLELEEANDKLANINDKLDDMYDLIEHEVKAKNDVEETKDIITDNLFKAKDMNYTLQTEIEYVRENYYINESDAQSVRQFENEIQSLISVYDDILKEMSKSAVRYSEVQDNLQYLEDHVTVINDKQEKLQNHLIQLREDEAEAEDNLLRVQSKKEEVYRRLLASNLTSVPERFIIMKNEIDHEVRDVNEQFSERPIHVKQLKDKVSKIVIQMNTFEDEANDVLVNAVYAEKLIQYGNRYRKDYSNVDKSLNEAERLFKNNRYKRAIEIAEQVLESVEPGVTKHIEEEVIKQ”, the protein production is reported as “failed”.
For “MSHRSPLRRLYPISAGGTAMRRSFAIGLTVLFLGNGAVMLAAPYPWYLAVPGVVLTGPFNDHFVRDVGAAYLACGVATALGAWNLRRHAGAVVVAATFQGLHAMIHLVTPFCGAGAPWLLLARDFPGVFLPTAATIWLAIAAFQPSEGEQK”, the protein production was “failed”.
For “MKVKSISRFFSMKKVTLSFVTLFIGVGTIGSYNQYADASMKTQQTHVTKSSPTQKTTSNFKRSVKDTSVKSRATSIKRATSTKQAISPKTSSTKKTTIAKKSTTVNKTRTTTKTQPTIRKSSTTSTRSKTMPTSVKRTTSHKATTVSPTSKAKISTKTQQSTKSHTTSVKKNTTQLSKTKSPSTSTKSKTVQSSTTKAQPTLSTQVSTTTKAKQFSTPTTSKTDSSKSLVSLASTERKIDKYQSMTQLEKETTEGVDWRKDTKNTGNQVLIVAPHGGSIEQGTTELTKALADKGNYDYYSFEGIRPKNNSELHVTSTHYDDPTLNQMIKNRTATISIHGASGSEEIIYLGGPRSDLRNAIEKQLVARGFTVKVPPEYLGGQNNKNFINREDNNTGVQLELTTALRKAFFKNGDTSTKNRTNKENWTPTMEEFINALYEGINQTYSLEHHHHHH”, the protein production was “failed”.
With “MREEHSPVRDGRRSGGLRSLIDPRFLSSFALNDGGSISGRRSSYLKLPPQGRIKLSVVKLNGSLFDVEVAKDCSVAELKRAVEQVFTISPLEGHGMISWSHVWGHFCLCYRDQRLVNDKTSIRYLGLNDGDQLHFVRHLSIDHSPMNKRSKSPSCKRYLELDVSSIVNEIQIQNQNQNGVDDVAEKCYPGAQDELPAAESRLVNLIKGWLPYAGRWGVSRKGPECRSGPSRFSLKHFGGRPKM” the protein production was “failed”.
With “MRSYRAQGPLPGFYHYYPGVPAVVGVRVEERVNFCPAVWNTGLSADPPLFGVSISPKRFTHGLLLKARRFSASFHPFGQKDLVHWLGSHSGREVDKGQAPHFLGHTGVPILEGAYAAYELELLEVHTFGDHDLFVGRVVAVWEEEGLLDEKGRPKPGLALLYYGKGLYGRPAEETFAP” the protein production was “not failed”.
In the case of “MAIRDAFGLTFSGATETGFTPYSQAVRELLCFIGDPVASVDRAILADPGFVMAHVFKGYLFGLATERDATAVARACHEAALPLAATTREEAHVLALGHLANGRWHDAARILEDVAIETPLDALALQVGHQIDFFTGNARMLRDRIARALPSWQSGMPGYHAILGMQAFGLEEMGDYTRAEKLGRTAVEIEPRDGWAQHAVAHVMEMQSRQRDGIVWMRANPEAWTKESFLQVHNWWHLALFHYDLGEIDQVLALYDGPIYGAPSAMALNMVDASALLWRLHLGGIDVGDRWAALAANWPKAGAGDYAFNDAHAMMAFVGAGLDGPALALLEAQREAMHGSGDNAAFTRDVGHPLTLAIKAFGEANYTEAVQLIRPIRAIANRFGGSHAQRDVIDLTLIEAALRAGDRALAGALTAERSMARPDSPLSVLLARRAADLSEN”, the protein production is reported as “failed”.
With “MATLNKALTRPAAIAGIPIVPFVIVSGAIVLLSVYLSYYLVLLLIPAWLEMKAKARTDIHYFGLLWLAFKTRGRFATNKYFGANAMLANRYDAVDVSEFIEKMKLNERVTLDKHIPYSSHVHPQVIRNRHGDLVSTWELGGTVFECEDEHHLTLMATHLNNVIRSYEGLPITFYLHRIREKYQDAFAASSGIPFSDDVTALYYQPIKEKPLWRHRLFFTLCYAPFSRLEKKAMKAQPSGKRTAALDGALKVMLEHRAALASALSRYTATPLGVYEENGRVYSSQLSFYHRLLTGQWQKVAVTRSPFYDILSTPDVFFTTDTAECQTVSGSRFFRSLEIKDYSPDTATGLLDALLYAESEYVMTQSFTCMARDEAQNHIRLAEKRLNSAADDAISQREELIVLRDLLQSGHVSCGKYHFSLLVSSDSADQVVKDVNALAQPFADLGIMTTLSTLSLPAAYLAQLPGVYTLRPRLVAVSSQNFADMASLHNFHPHKRNGNPWGEAITIMTSPGGGGYYLNLHDSQAGRDDFNEKTPGNTAIIGKTGSGKTMLMTVMQQLMQKYRNPATFSESAPHKRLSTVYFDKDRAAEMAIRQMGGRYFRLRTGVPTGFNPFALAPTKRNISFIKRLVRMLCRRNSKPLDPRDEERISTAVDTIMLDYPPEYRRYGITRLLEVLPEPPTKEARTNGLRIRLKQWAQGGEFGWVFDNETDTFDISDIDNVGIDGTEFLDDDDIRGPITFYLLYRVTGLLDGRRLVMFMDEFWKWLADVEFSRFSLNMLKVIRKLNGIFIPATQSPDEIVRHPIAPAIIEQCGTQIFLANPKASRADYVEKMKVPDSVYDIVRHLDPGERYMVVLKTPLRAGETRPFVSMAKMDLSGLGKITRMLSGSEDNLKLFDALYQEGMQPDDWKDAFLEIAL” the protein production was “failed”.
For “MLPSGLKETQLRESNNNQKVHPQPMEESINQNPEAMEALISNLFGNISSLKSAYIELQSAHTPYDPEKIQAADKVVISELKNLSEMKHFYRENNPKPVCVSPQDSRLAAEIQEQQSLLKTYEVMVKKFQSEIQNKDSEITQMLQKIEEANQKRLKLEKNLKLRGMSTNEGSNGDGNMQFPDLTTELYVSTYEAAAKAVHDFSKPLINMMKAAGWDLDSAANSIEPDVVYAKRPHKKYAFESYICQRMFSGFQQKNFSVNSESAAVMANDDTDTFFRQFLALKDMDPLDALGTNPDSNFGIFCRSKYLLLVHPKMEASFFGNLDQRDYVTGGGHPRTAFYQAFLKLAKSIWILHRLAYSFDPAAKIFQVKKGSEFSDSYMESVVKNIVVDEKEENPRVGLMVMPGFWIGGSVIQSRVYVSGVKVLE”, the protein production was “failed”.
In the case of “MTKKTGFFKRLKALTLPQKQLFATALCQRMLPNYQLFSEVCEFGDPAVLSTALELLWQSLYDPKLKFNIDVHLQRLEDNTPEPADFEAYGVYPAMDAVVAISTLLGAIQGKIEEDIVNISKLSSSTVANYIEAISDVDLVDEALDDFVFAHEVMEEEKELQNSLLEIIEENPKITAELVKGLRKDIIETGVSNIGISVA”, the protein production is reported as “not failed”.
With “NQEPSGAVRITLSRFAYLLILKPAMAAFCQQYPGIQLEISVYDGTVNIIEERFDLGIRFGDILEGGVVARPLMKPFREGLYASSAYLAEYGVPAMPADLHHHRLIGYRFITNNRILPLILNDHGEQLTVEMPGQLISNDIDVM” the protein production was “failed”.
For “MGAVGRGRRMSERHLRRSTHKVGDITLGAVHRLNCHCGAVQIDLDLPHGLVDPRRCDCSMCRRRGAIVASVPLQGLHVRQGEDVLRLYQFNTHAAAHYFCGVCGIYTHHRRRSNPNEYGYNVGCLEGVNPYALNITVPVEDGIHHPADRVAPQLEHHHHHH”, the protein production was “failed”.
With “MSRIGKLLLGIVNLGPIGFMAVAVYRHGDLPASAVAVQVAVVAVLLGIYLRHLAGNDQLTRGLRRGWALVLLAGNWAVFPVYWHQFVWQDPRER” the protein production was “failed”.
With “KKISSTAVIELALDLATSLNTKDRFDRLLDTVRKTITCDAVALLSYHGDVLKPIALQGLSRDTLGRRFYVEEHPRFLALCQSKSPIRFAADSPLPDPYDGLLIDREGDLPVHSCMGLPLYYDDKLLGLLTIDSLTPHDFEDIDVRMLEVISAIAAATLNTAFLLDQLESRADHSQRVVAELTEEAWKRDGGE” the protein production was “failed”.
With “MIPLSESFESGIPAIWKTIDADGDGYNWMHLTNFTGQSGLCVSSASYIGGVGALTPDNYLITPELKLPTDALVEIIYWVCTQDLTAPSEHYAVYSSSTGNNAADFVNLLYEETLTAKRIQSPELIRGNRTQGVWYQRKVVLPNDTKYVAFRHFNSTDNFWLNLDEVSILYTPLPRRA” the protein production was “not failed”.
For “MIMKKYWKLMLMAVGMSAAFTLASCNDDKDVVIDQIYYISTDPSATTYPTTFSVSLVDNSVAGRPFFYVVGKSTMRVDRNTTLRVEEDSKLVEKYNETYGKKYLPFPEGTYSFSTNEVTINQGDNFSSDTIFISFSNWDKLSKIDKYLLPVSLKAVDDKGAVSMDRNLIYFIADFSTTNTGYNKPAAWKPLDRTDWDVSFSYAYGYDEAQFGGRLAVDGDVSTTWFTWGVVSAGECWWATTLPAPTHLTGFSLTRQTTFGSSYNVREAKVKVKKEGDTEWTEAGLFRFGSFKGNDPQYAVFIPAVENVKEFRIDIVSPADFTGFAELDLYQ”, the protein production was “failed”.
In the case of “MPEAGLAQLVPLTAVALLAGVVDAIAGGGGLLTLPALLWTGLPPHLALGTNKGQSVFGSFAALVRFSRAGMVDGRRARLTFPLGLAGSLAGAGLVLLVPPATLRPVVLALLAFAALFVGLRRGPPARPDGGPRPAAPVVAGAIALAIGAYDGFFGPGTGTFLIVAFVALLGDGLAHASAGAKVVNFASNLAAVTLFSIKGVVVWRIAVPMAVAQLAGGWIGAHLAVRRGDALVRRTAVLVTLALAVKLAWDMRS”, the protein production is reported as “failed”.
For “MAASAAATAAASAATAASAASGSPGSGEGSAGGEKRPAASSAAAASAAASSPAGGGGEAQELLEHCGVCRERLRPERDPRLLPCLHSACSACLGPATPAAANNSGDGGSAGDGAMVDCPVCKQQCYSKDIVENYFMRDSGSKASSDSQDANQCCTSCEDNAPATSYCVECSEPLCETCVEAHQRVKYTKDHTVRSTGPAKTRDGERTVYCNVHKHEPLVLFCESCDTLTCRDCQLNAHKDHQYQFLEDAVRNQRKLLASLVKRLGDKHATLQKNTKEVRSSIRQVSDVQKRVQVDVKMAILQIMKELNKRGRVLVNDAQKVTEGQQERLERQHWTMTKIQKHQEHILRFASWALESDNNTALLLSKKLIYFQLHRALKMIVDPVEPHGEMKFQWDLNAWTKSAEAFGKIVAERPGTNSTGPGPMAPPRAPGPLSKQGSGSSQPMEVQEGYGFGSDDPYSSAEPHVSGMKRSRSGEGEVSGLLRKVPRVSLERLDLDLTSDSQPPVFKVFPGSTTEDYNLIVIERGAAAAAAGQAGTVPPGAPGAPPLPGMAIVKEEETEAAIGAPPAAPEGPETKPVLMPLTEGPGAEGPRLASPSGSTSSGLEVVAPEVTSAPVSGPGILDDSATICRVCQKPGDLVMCNQCEFCFHLDCHLPALQDVPGEEWSCSLCHVLPDLKEEDGSLSLDGADSTGVVAKLSPANQRKCERVLLALFCHEPCRPLHQLATDSTFSMEQPGGTLDLTLIRARLQEKLSPPYSSPQEFAQDVGRMFKQFNKLTEDKADVQSIIGLQRFFETRMNDAFGDTKFSAVLVEPPPLNLPSAGLSSQELSGPGDGP”, the protein production was “not failed”.
With “MGRRPSSSHKVSSGKISARPSLHCERGGFMRKTFLAPLTVALCALAAAQTPPPAPIDRPLPAPEPPATATVTRNEPTPQQFTPDKLARLKVPAGFKVSVMATELGNARMLHVMPDGGIYLSRRQNGDIWYLKDVNGDGTIDATERRRVADQLKLVHGIDTRQGKLYAVGEKTIWVMDIARDGTLSVPRVFADNFPDAGQHPARQLGWGPDGYLYASFGATNNDAPTQNPEEATILRIRPDGQVREVYARGLRHTIGFGWHPVTKTFYGMDQGSDWHGDNIPPEELNVIKRGKNYGWPFCYGAKNPDPFVNVANIPGKITKAEYCATTEPSTLNYTAHAAAIALKFYTGTQFPAEFRNDAFVTFRGSWNRNEPSGYEVARVVFDAQNKPEKIEPFVTGFVYQEGGEWKQFGRVAGLAVYTDGSLLFTDDQSGVIYRVQYVGGQK” the protein production was “failed”.
